Columns and labels:
[1] = molecular target: T1, Nucleolin (MBP fusion, lacking N-terminal acidic stretches domain) (Homo sapiens, UniProt P19338 P19338:284-710); assay: filter; Bmax 47%; 60 mM KCl, 1 mM MgCl2; conditions: label: 32P
Procedure: (§1) The assay also was conducted in a filter-binding format. In such forms of the assay, 0.2 nM of ³²P-labeled quadruplexes were incubated in 50 uL of the binding buffer (12.5 mM Tris-HCl, pH 7.6, 60 mM KCl, 1 mM MgCl2, 0.1 mM EDTA, 5% glycerol, 0.1 mg/mL BSA) for 10 min at 85 C and then for 10 min on ice and mixed with another 50 uL of binding buffer containing increasing amounts of recombinant protein Nucleolin. The protein-quadruplex mixtures were incubated for 30 min at ambient temperature and filtered through mixed cellulose ester membrane filters (Millipore) with gentle suction. The filters were washed twice with […] of binding buffer, dried and OptiPhase ‘SuperMix’ scintillation cocktail (Perkin Elmer) was added to the wells. Radioactivity was assayed with MicroBeta scintillation counter (Perkin Elmer). Binding curves were constructed and apparent Kd's and Bmax's for the complexes were calculated using the GraphPad Prizm software program (GraphPad Software). […]

[2] = molecular target: T1, Nucleolin (MBP fusion, lacking …); assay: filter; Bmax 100%; sequence taken from Example 6 table; conditions: label: 32P; G4 complex
Procedure: as §1

[3] = molecular target: T1, Nucleolin (MBP fusion, lacking …); assay: filter; Bmax 26%; 60 mM KCl, 1 mM MgCl2; conditions: label: 32P; G4 mixed
Procedure: as §1

[4] = molecular target: T1, Nucleolin (MBP fusion, lacking …); assay: filter; 60 mM KCl, 1 mM MgCl2; conditions: label: 32P
Procedure: The assay also was conducted in a filter-binding format. In such forms of the assay, 0.2 nM of ³²P-labeled quadruplexes were incubated in 50 uL of the binding buffer (12.5 mM Tris-HCl, pH 7.6, 60 mM KCl, 1 mM MgCl2, 0.1 mM EDTA, 5% glycerol, 0.1 mg/mL BSA) for 10 min at 85 C and then for 10 min on ice and mixed with another 50 uL of binding buffer containing increasing amounts of recombinant protein Nucleolin. The protein-quadruplex mixtures were incubated for 30 min at ambient temperature and filtered through mixed cellulose ester membrane filters (Millipore) with gentle suction. The filters were washed twice with […] of binding buffer, dried and OptiPhase ‘SuperMix’ scintillation cocktail (Perkin Elmer) was added to the wells. Radioactivity was assayed with MicroBeta scintillation counter (Perkin Elmer). Binding curves were constructed and apparent Kd's and Bmax's for the complexes were calculated using the GraphPad Prizm software program (GraphPad Software). In the following table, the nucleic acid ligand is designated in the first column using the nomenclature described herein; the second column provides the nucleotide sequence of the nucleic acid ligand; the third column is the conformation of the ligand as determined by circular dichroism (M is mixed, P is parallel, A is antiparallel, C is complex, SS is single-stranded and ND is not determined); the fourth column is the dissociation constant determined by the filter binding assay of nucleolin protein and the nucleic acid ligand; the fifth column is a Bmax constant determined by the filter binding assay, which is the percent of active nucleic acid ligand in each assay; and the sixth column presents the concentration of Compound A-1 required to dissociate half of the complexed nucleic acid ligand and nucleolin protein, as determined by the EMSA assay described above.

[5] = molecular target: T1, Nucleolin (MBP fusion, lacking …); assay: filter; Bmax 84%; 60 mM KCl, 1 mM MgCl2; conditions: label: 32P; G4 mixed
Procedure: as §1

[6] = molecular target: T1, Nucleolin (MBP fusion, lacking …); assay: filter; Bmax 50%; 60 mM KCl, 1 mM MgCl2; conditions: label: 32P
Procedure: as §1

[7] = molecular target: T1, Nucleolin (MBP fusion, lacking …); assay: filter; Bmax 65%; 60 mM KCl, 1 mM MgCl2; conditions: label: 32P; G4 motif, CD not determined
Procedure: as §1

[8] = molecular target: T1, Nucleolin (MBP fusion, lacking …); assay: filter; Bmax 16%; 60 mM KCl, 1 mM MgCl2; conditions: label: 32P; G4 motif, CD not determined
Procedure: as §1

[9] = molecular target: T1, Nucleolin (MBP fusion, lacking …); assay: filter; Bmax 32%; 60 mM KCl, 1 mM MgCl2; conditions: label: 32P
Procedure: as §1

[10] = molecular target: T1, Nucleolin (MBP fusion, lacking …); assay: filter; Bmax 37%; 60 mM KCl, 1 mM MgCl2; conditions: label: 32P; G4 parallel
Procedure: as §1

[11] = molecular target: T1, Nucleolin (MBP fusion, lacking …); assay: filter; Bmax 31%; 60 mM KCl, 1 mM MgCl2; conditions: label: 32P; G4 motif, CD not determined
Procedure: as §1

[12] = molecular target: T1, Nucleolin (MBP fusion, lacking …); assay: filter; Bmax 49%; 60 mM KCl, 1 mM MgCl2; conditions: label: 32P; G4 motif, CD not determined
Procedure: as §1

[13] = molecular target: T1, Nucleolin (MBP fusion, lacking …); assay: filter; Bmax 82%; 60 mM KCl, 1 mM MgCl2; conditions: label: 32P; G4 motif, CD not determined
Procedure: as §1

[14] = molecular target: T1, Nucleolin (MBP fusion, lacking …); assay: filter; Bmax 21%; 60 mM KCl, 1 mM MgCl2; conditions: label: 32P; G4 motif, CD not determined
Procedure: as §1

[15] = molecular target: T1, Nucleolin (MBP fusion, lacking …); assay: filter; apparent Kd; Bmax 41%; 12.5 mM Tris-HCl pH 7.6, 60 mM KCl, 1 mM MgCl2, ambient temperature; conditions: label: 32P; G4 mixed
Procedure: as §1

[16] = molecular target: T1, Nucleolin (MBP fusion, lacking …); assay: filter; Bmax 33%; 60 mM KCl, 1 mM MgCl2; conditions: label: 32P; G4 parallel
Procedure: as §1

[17] = molecular target: T1, Nucleolin (MBP fusion, lacking …); assay: filter; Bmax 43%; 60 mM KCl, 1 mM MgCl2; conditions: label: 32P; G4 motif, CD not determined
Procedure: as §1

[18] = molecular target: T1, Nucleolin (MBP fusion, lacking …); assay: filter; Bmax 53%; 60 mM KCl, 1 mM MgCl2; conditions: label: 32P; G4 mixed
Procedure: as §1

[19] = molecular target: T1, Nucleolin (MBP fusion, lacking …); assay: filter; Bmax 66%; 60 mM KCl, 1 mM MgCl2; conditions: label: 32P; G4 mixed
Procedure: as §1

[20] = molecular target: T1, Nucleolin (MBP fusion, lacking …); assay: filter; Bmax 20%; 60 mM KCl, 1 mM MgCl2; conditions: label: 32P; G4 motif, CD not determined
Procedure: as §1

[21] = molecular target: T1, Nucleolin (MBP fusion, lacking …); assay: filter; Bmax 35%; 60 mM KCl, 1 mM MgCl2; conditions: label: 32P; G4 motif, CD not determined
Procedure: as §1

[22] = molecular target: T1, Nucleolin (MBP fusion, lacking …); assay: filter; Bmax 55%; 60 mM KCl, 1 mM MgCl2; conditions: label: 32P; G4 motif, CD not determined
Procedure: as §1

[23] = molecular target: T1, Nucleolin (MBP fusion, lacking …); assay: filter; Bmax 52%; 60 mM KCl, 1 mM MgCl2; conditions: label: 32P; G4 motif, CD not determined
Procedure: as §1

T1 sequence (P19338 284-710, one chain of several): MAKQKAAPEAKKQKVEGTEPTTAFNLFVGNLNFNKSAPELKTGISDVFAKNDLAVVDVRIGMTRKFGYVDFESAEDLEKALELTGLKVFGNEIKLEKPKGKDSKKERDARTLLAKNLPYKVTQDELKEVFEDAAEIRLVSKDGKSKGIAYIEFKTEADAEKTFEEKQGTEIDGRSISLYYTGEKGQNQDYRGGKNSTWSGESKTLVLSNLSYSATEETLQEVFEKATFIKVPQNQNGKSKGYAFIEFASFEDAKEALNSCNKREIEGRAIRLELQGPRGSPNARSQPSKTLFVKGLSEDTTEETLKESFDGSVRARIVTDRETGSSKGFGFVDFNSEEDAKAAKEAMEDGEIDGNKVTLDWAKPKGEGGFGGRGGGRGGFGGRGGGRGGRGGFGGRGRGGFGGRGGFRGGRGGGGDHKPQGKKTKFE

B1: 6374NT (structured_DNA)
DNA: GGGGGCGGGAACCCCCGGGCGCCTGTGGG
Binder B1 has a Kd ([1]; G4 mixed) of 5.5 nM.

B2: 8762NT (structured_DNA)
DNA: CGGAGGGCGCGCGGGTCGGGGCGGCGGCGGCGGCGGCGGTGGCGGCGGCGGCGGGGGCGGCGGG
Binder B2 has a Kd [2] of 0.3 nM.

B3: 6183NT (structured_DNA)
DNA: GGGTCGGGGGCGGTGGTGGGCCCGCGGGGG
B3 showed a Kd [3] of 2.2 nM.

B4: 11888T (structured_DNA)
DNA: AGGGGACACCGGGGGGGCGCCGGGGG
B4 was tested, and the Kd ([1]; G4 motif, CD not determined) was 0.2 nM.

B5: 13236T (structured_DNA)
DNA: AGGGACGGGGACCGGCGGGCCACGGGG
For B5, the Kd ([4]; G4 motif, CD not determined) was > 30 nM.

B6: 5701NT (structured_DNA)
DNA: AGGGAGGGAGACGGGGGGG
B6 gave a Kd [5] of 3.2 nM.

B7: 1310T (structured_DNA)
DNA: AGGGACGCCTGGGGAAGGGAGGGGG
B7 showed a Kd ([6]; G4 motif, CD not determined) of 4.4 nM.

B8: 10137T (structured_DNA)
DNA: AGGGGCTCCGGGGGCGGGGAGCGGGGCGTGGGCGGGAGGAGGGG
In the case of B8, the Kd [7] is reported as 0.4 nM.

B9: 7499T (structured_DNA)
DNA: AGGGCGGGCGGCGGGGCGGG
With B9 the Kd [8] was 1.1 nM.

B10: hTel (structured_DNA)
DNA: AGGGTTAGGGTTAGGGTTAGGG
B10 was tested, and the Kd ([4]; G4 antiparallel) was > 30 nM.

B11: 13173NT (structured_DNA)
DNA: GGGCCGGGACGGGGTCCGGGG
In the case of B11, the Kd ([4]; G4 mixed) is reported as > 30 nM.

B12: 11345T (structured_DNA)
DNA: AGGGGGGAACGGGGGGCGGACGGGGCCGGGGGGGTAGGGCGGGGGG
B12 was tested, and the Kd ([9]; G4 motif, CD not determined) was 0.3 nM.

B13: 13079NT (structured_DNA)
DNA: GGGGTGGGGGGGAGGG
Binder B13 has a Kd [10] of 2.6 nM.

B14: 8904T (structured_DNA)
DNA: AGGGGGTGGGCGCCGGGAGGGGGG
For B14, the Kd [11] was 0.4 nM.

B15: 8716T (structured_DNA)
DNA: AGGGAGGACGCGGGGCCGGGGGGCGGAGACGGG
Work on B15 yielded a Kd [12] of 3.1 nM.

B16: 10885T (structured_DNA)
DNA: AGGGTGGGGCGGGGGAGGGCCGCGAGGGGGGTGCCCCGGGCGTGGGGGGGG
Binder B16 has a Kd [13] of 0.2 nM.

B17: 3468T (structured_DNA)
DNA: AGGGACCGGTGGGGCCGGGGCGGGG
B17 was tested, and the Kd [14] was 2.4 nM.

B18: 1196NT (structured_DNA)
DNA: GGGTGGACGGGGGGGCCTGGTGGGG
Binder B18 has a Kd [15] of 4.2 nM.

B19: Myc27 (structured_DNA)
DNA: TGGGGAGGGTGGGGAGGGTGGGGAATT
B19 showed a Kd [16] of 4.4 nM.

B20: 7370T (structured_DNA)
DNA: AGGGGCGGCGGGGAGGAGGAGGGGCGCGGGG
For B20, the Kd [8] was 1.1 nM.

B21: 9024T (structured_DNA)
DNA: AGGGGCGGGGGCGCGGGGAGGAGGGGTGGG
B21 was tested, and the Kd [17] was 0.3 nM.

B22: 7733T (structured_DNA)
DNA: GGGAGGGGCACGGGCCGGGGGCGGGACGGG
In the case of B22, the Kd [18] is reported as 0.8 nM.

B23: 2957NT (structured_DNA)
DNA: GGGTCGGGGGGTGGGGCCCGGGCCGGGG
For B23, the Kd [19] was 2.7 nM.

B24: GGA4 (structured_DNA)
DNA: GGAGGAGGAGGA
With B24 the Kd ([4]; G4 parallel) was > 30 nM.

B25: 3500T (structured_DNA)
DNA: AGGGCGGACGGGAGGGAGCGAGCGGGCGCGGGGG
For B25, the Kd [20] was 1.1 nM.

B26: 10985T (structured_DNA)
DNA: AGGGGAGGGGGGAGGACGGGGAGCGGGGG
Work on B26 yielded a Kd [21] of 0.2 nM.

B27: 8440T (structured_DNA)
DNA: AGGGGCGGCGGGGGAAGGGAGGGCGGGTGGAGGGGTCGGGAGGAACGGGGGGCGGG
B27 was tested, and the Kd [21] was 0.3 nM.

B28: 11028NT (structured_DNA)
DNA: GGGGCGCGGCGGGGGGAGAAGGGTCGGGGCGGCAGGGG
Binder B28 has a Kd ([9]; G4 mixed) of 2.7 nM.

B29: 2160T (structured_DNA)
DNA: AGGGCGGCGGGCGGGGAAGAGGGCACAGACGGGCGAGGGCCGGGGACCGCGAGGGCAAGGGCACCCGGG
In the case of B29, the Kd [22] is reported as 0.7 nM.

B30: 10951T (structured_DNA)
DNA: AGGGCGCGGGGTGGGGAGGG
With B30 the Kd [23] was 0.2 nM.

B31: 6914T (structured_DNA)
DNA: GGGCCCGCGGGGGGAGGGGGAAGGGGCGGG
B31 was tested, and the Kd ([6]; G4 mixed) was 0.8 nM.

Reference: US20070117770, “Human ribosomal DNA (rDNA) and ribosomal RNA (rRNA) nucleic acids and uses thereof” (Cylene Pharmaceuticals, Inc., published 2007)
